Read-outs that look alike come from different tables or passages of the source.

Experiment [1] deals with actin in thin filaments (mouse (endogenous in C57BL/6 ventricular myofibrils)) (UniProt P68033).
For experiment [2] the target is unchanged. This is another data set of the same source.

On to “myosin cross-bridge (from UniProt Q02566 1-1938; P09542 1-204; P51667 1-166) (complex)”, for which the k3 (rate of dissociation of XBs from thin filaments, with ATP) was determined as 0.061 s⁻¹ in experiment [1] and 0.0492 s⁻¹ in experiment [2].

The values above are taken from PMC4262935.
